From patent US20240325557A1, “TREATMENT OF CANCER” (INNATE PHARMA, priority 2020, published 2024) come the findings set out here.

“Also recorded” adds a separate entry of the source.

Experiment [1] addresses T1, Hu-Nectin4 IgC1C2-V5 (modified Nectin-4 lacking the Ig-like V domain, C1C2 construct) (Homo sapiens, UniProt Q96NY8).
T1 construct: expressed in transfected cells; host or cells: CHO
T1 sequence (Q96NY8 148-510): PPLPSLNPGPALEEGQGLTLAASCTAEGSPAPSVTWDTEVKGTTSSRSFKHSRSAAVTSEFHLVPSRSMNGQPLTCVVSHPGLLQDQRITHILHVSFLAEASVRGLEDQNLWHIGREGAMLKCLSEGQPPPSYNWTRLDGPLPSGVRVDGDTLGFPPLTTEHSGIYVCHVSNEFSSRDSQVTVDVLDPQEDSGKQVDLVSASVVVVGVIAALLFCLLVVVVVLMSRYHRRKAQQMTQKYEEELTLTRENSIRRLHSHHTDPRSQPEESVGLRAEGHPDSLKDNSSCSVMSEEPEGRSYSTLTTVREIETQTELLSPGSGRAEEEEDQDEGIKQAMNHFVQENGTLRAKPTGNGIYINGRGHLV
Kind of experiment: Flow cytometry binding to cells expressing the Nectin-4 C1C2 construct. The procedure:
The characterization of the binding of the antibodies on Nectin-4 domains was performed by flow cytometry using cells made to express the wild-type human Nectin-4 protein and cells made to express a modified Nectin-4 having the Ig-like C2 type 1 and the Ig-like C2 type 2 domains and lacking the Ig-like V domain (the C1C2 construct). The latter protein additionally bears a V5 tag for flow cytometry cell sorting, and cells were used as Nectin4-C1C2-V5 sorted cells.
Wild-type Nectin-4 (the CI.3C8 cell line), a C2 construct (containing the Ig-like C2 type 2 domain and lacking both the V and the C1 domains) and the C1C2 construct allow the determination of whether test antibodies bind to the V or different C domains. Briefly, nucleic acid sequences encoding different human Nectin-4 domains were amplified by PCR. The PCR products were inserted into an expression vector at appropriate restriction sites. A leader peptide, and for C1C2 and C2 an N-terminal V5 tag having the amino acid sequence […] (SEQ ID NO: 41), were added, and expression at the surface of cells was confirmed by flow cytometry. The amino acid sequences of the resulting different human Nectin-4 domain fragment-containing proteins are shown below (V5 tag underlined). The vectors were then transfected into the CHO cell line to obtain stable clones expressing the different Nectin-4 domain proteins at the cell surface.
For orientation: A flow cytometer gives signals particle by particle.

Experiment [2] has as its target T2, wild-type human Nectin-4 protein (huNectin4-his-BirA) (Homo sapiens, UniProt Q96NY8).
T2 sequence (Q96NY8 with tags, fused parts or gaps): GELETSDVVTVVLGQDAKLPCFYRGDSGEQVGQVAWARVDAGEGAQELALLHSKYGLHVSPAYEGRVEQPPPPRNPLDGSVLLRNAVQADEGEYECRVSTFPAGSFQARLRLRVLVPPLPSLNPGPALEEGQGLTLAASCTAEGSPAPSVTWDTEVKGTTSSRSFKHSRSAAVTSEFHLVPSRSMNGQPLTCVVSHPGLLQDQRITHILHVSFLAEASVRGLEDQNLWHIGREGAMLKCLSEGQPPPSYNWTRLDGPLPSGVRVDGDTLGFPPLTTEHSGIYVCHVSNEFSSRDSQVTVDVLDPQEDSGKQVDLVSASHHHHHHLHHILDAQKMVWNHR
Kind of experiment: Affinity determination by SPR (Biacore T200). In kind it is binding. As to conditions: 25° C. How it is done:
Antibodies were tested for binding affinity to the wild-type human Nectin-4 protein by SPR (Surface Plasmon Resonance) methods. Measurements were performed on a Biacore T200 apparatus (Biacore GE Healthcare) at 25° C. Sensorgrams were analyzed with Biacore T100 Evaluation software. A CMR Sensor Chip with immobilized Protein A at about 600 RU was used. Anti-Nectin-4 antibodies were captured onto the Protein-A chip (antibodies diluted to 1 μg/ml in HBS-EP+1× buffer and injected over 120s at 40 μL/min). Recombinant human monomeric huNectin4-his-BirA protein was injected at different concentrations in a range from 100 nM to 1.56 nM over captured antibodies (HuNectin4-His-BirA diluted in HBS-EP+1× in ½ dilutions, injected over 120s at 40 μl/min) and allowed to dissociate for 600s. The chip was regenerated with NaOh 10 mM 2× for 30s at 40 μl/min. The sensorgram sets were fitted using the 1:1 kinetic binding model or two state reaction model, as a function of the profile of the curves.

Experiment [3] in a line: Binding to HEK-293T cells, negative control of the point mutant test. More on the design: species or system human. The procedure: (§1) Nectin-4 mutants were generated by PCR. The sequences amplified were run on agarose gel and purified using the Macherey Nagel PCR Clean-Up Gel Extraction kit. The purified PCR products generated for each mutant were then ligated into an expression vector, with the ClonTech InFusion system. The vectors containing the mutated sequences were prepared as Miniprep and sequenced. After sequencing, the vectors containing the mutated sequences were prepared as Midiprep using the Promega PureYield™ Plasmid Midiprep System. HEK293T cells were grown in DMEM medium (Invitrogen), transfected with vectors using Invitrogen's Lipofectamine 2000 and incubated at 37° C. in a CO2 incubator for 48 hours prior to testing for transgene expression. The targeted amino acid mutations are shown in Table 2 below, listing the residue present in wild-type Nectin-4/position of residue/residue present in mutant Nectin-4, with position reference being to the Nectin-4 protein with leader peptide shown in SEQ ID NO: 1.

The test system of experiment [4] is Nectin-4 Mutant 5 (A158P/E160G/S243A/F244S). Kind of experiment: Binding to cell surface expressed Nectin-4 point mutant. Set-up: species or system human. The following applies: HEK-293T; results irrelevant, due to an absence of expression of said protein.
Source text: Combined with the published structures of the Nectin-4 domains, Nectin-4 mutations at surface exposed amino acids residues were designed. Nectin-4 domain structure was modelled based on Protein Data Bank reference: 4FRW (domains V et C1). Human Nectin-4 used was NCBI Reference Sequence: NP_112178.2, mouse Nectin-4 used was NCBI Reference Sequence: AAL79833.1, cynomolgus Nectin-4 used was NCBI Reference Sequence: XP_005541277.1, rat Nectin-4 used was NCBI Reference Sequence: NP_001102546.1. The cells expressing the Nectin-4 mutants are then be used for testing anti-Nectin-4 antibodies for loss of binding to different Nectin-4 mutants to identify antibodies that bind to the same site on Nectin-4. […] FIGS. 12A and 12B show a molecular model of the human Nectin-4 protein, indicating the position of substituted residues in mutants 7 (12A) and in mutants 7bis (12B); these mutants are in the C1 domain identify two sites at the junction of domain C1 and V domain that are on opposing faces of the Nectin-4 protein.
as §1

B1: N41 (antibody, V domains shown)
VH: QVQLKQSGPGLVQPSQSLSITCTVSGFSLTNYGVHWVRQSPGKGLEWLGVIWSGGSTDYNAAFISRLSISKDTSKSQVFFKMNSLQADDTAIYYCARELIHAMDNWGQGTSVTVSS
VL: DIQMTQSPASLSVSVGETVTITCRASENIYSNLAWYQQKQGNSPQLLVFAATNLADGVPSRFSGSGSGTQYSLKINSLQSEDFGTYYCQHFWGTPTFGGGTKLEIK
Turning to B1, the “binding to the C1C2 construct” value in experiment [1] was “lost all binding to the C1C2 construct”. In experiment [2], this molecule registered a ka of 580000 M⁻¹ s⁻¹ and a kd of 0.00087 s⁻¹. Further, the “association, EXPI medium (negative control)” value (shortened to “association, EXPI medium”) in experiment [3] is listed as “−”. In experiment [4], the “association with Nectin-4 Mutant 5” value was “−”.

B2: 5E7 (antibody, V domains shown)
VH: QVQLQQPGAELVKPGASVKLSCKASGYIFTSYWMHWVKQRPGQGLEWIGEIDPSDSYTNYNQKFKGKATLTLDKSSSTTYMQLSSLTSEDSAVYYCVRGYGNYGDYWGQGTTLTVSS
VL: DVVMTQAAFSNPVTLGTSASISCRSSKSLLHSNGITYLYWYLQKPGQSPQLLIYQMSNLASGVPDRFSSSGSGTDFTLRISRVEAEDVGVYYCAQNLELPWTFGGGTKLEIK
Turning to B2, the “binding to the C1C2 construct” value in experiment [1] is given as “partial loss of binding to the C1C2 construct; also recorded: retain binding to the C1C2 construct”. Moreover, in experiment [2], the ka was determined as 620000 M⁻¹ s⁻¹ and the kd was 0.003 s⁻¹. Also, in experiment [3], the “association, EXPI medium” value was “−”. The “association with Nectin-4 Mutant 5” value in experiment [4] is “−”.

B3: 10B12: anti-Nectin-4 antibody, VH SEQ ID NO: 24, VL SEQ ID NO: 25, binds junction of domain C1 and V (antibody, listed as Mus musculus, V domains shown)
VH: QVQLQQPGAELVKPGASVKLSCKASGYTFTSYWMHWVKQRPGQGLEWIGEIDPSDSYTNYNQKFKGKATLTVDKSSSTAYMQLSSLTSEDSAVYYCVRGYGNYGDYWGQGTTLTVSS
VL: DIVMTQAAFSNPVTLGTSASISCRSSKSLLHSNGITYLYWYLQKPGQSPQLLIYQMSNLASGVPDRFSSSGSGTDFTLRISRVEAEDVGVYYCAQNLELPWTFGGGTKLEIK
Regarding B3, the “binding to the C1C2 construct” value in experiment [1] is “partial loss of binding to the C1C2 construct; also recorded: retain binding to the C1C2 construct”. In experiment [2], this molecule came in with a ka of 860000 M⁻¹ s⁻¹ and a kd of 0.01 s⁻¹. Also, the “association, EXPI medium” value in experiment [3] is listed as “−”. Further, the “association with Nectin-4 Mutant 5” value in experiment [4] is “−”.
